For this experiment, the target named is human DCN1 (residues 58–259), N-terminal His6 tag (human, UniProt Q96GG9 58-259). Description: FP.

Where no end group is shown, it is not given here. [ ]: non-standard residue; d: D form. 5‑Cl‑benzothiazol‑2‑yl side chain = not defined here; 6‑Cl‑benzothiazol‑2‑yl side chain = not defined here; Phe(3-CF3) = N[C@@H](Cc1cccc(C(F)(F)F)c1)C(=O)O; Phe(3,5-F2) = N[C@@H](Cc1cc(F)cc(F)c1)C(=O)O; Phe(3-CN) = N#Cc1cccc(C[C@H](N)C(=O)O)c1; Phe(3-Cl) = N[C@@H](Cc1cccc(Cl)c1)C(=O)O; Phe(4-Cl) = N[C@@H](Cc1ccc(Cl)cc1)C(=O)O; Phe(2-Cl) = N[C@@H](Cc1ccccc1Cl)C(=O)O; 2Nal = N[C@@H](Cc1ccc2ccccc2c1)C(=O)O; Phe(2-F) = N[C@@H](Cc1ccccc1F)C(=O)O; hPhe = N[C@@H](CCc1ccccc1)C(=O)O

For 21 molecules, Ki results are on record in article PMC5658359 (2017).

Sequence of human DCN1 (residues 58–259), N-terminal His6 tag (Q96GG9 58-259): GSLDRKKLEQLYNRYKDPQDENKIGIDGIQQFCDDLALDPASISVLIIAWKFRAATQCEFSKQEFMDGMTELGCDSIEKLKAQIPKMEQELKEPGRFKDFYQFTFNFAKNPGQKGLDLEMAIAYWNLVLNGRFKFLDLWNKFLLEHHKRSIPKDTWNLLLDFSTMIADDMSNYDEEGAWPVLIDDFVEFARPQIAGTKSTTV

Consider [Phe(3,5-F2)]IKL [analog of 11 with 3,5-di-F substitution of the phenyl], for which the Ki came to 82 µM. This counts as double-digit micromolar. To MIKLFSL [UBC12 seven-residue peptide (6)] belongs 28 µM. In turn, [hPhe]IKL [compound 12 (tetrapeptide 9 with Met1 replaced by homophenylalanine)] came in with an inhibitory constant (Ki) of 313 µM. Compared with the last molecule, the Ki is about 11-fold higher. Take MIKLF [UBC12 peptide 8]: the affinity, expressed as Ki, was 111 µM.

With [Phe(2-F)]IKL [analog of 11 with o-F substitution of the phenyl], the Ki is 125 µM. FIKL [compound 11 (tetrapeptide 9 with Met1 replaced by phenylalanine)] came in with a Ki of 41 µM. This Ki is about 3-fold lower than that of the molecule before.

For the molecule [Phe(3-CN)]IKL [analog of 11 containing an m-CN substituted phenyl], the inhibition constant (Ki) was more than 1000 µM.

[Phe(4-Cl)]IKL [compound 15 (11 with Cl at the para position of the phenyl ring)] had a Ki of 71 µM. [Phe(3-CF3)]IKL [analog of 11 containing an m-CF3 substituted phenyl] had an inhibition constant Ki of more than 1000 µM. Then MIKLFSLKQQK [UBC12 peptide 2 (peptide 1 without Lys12)], with 2.4 µM. To [6‑Cl‑benzothiazol‑2‑yl side chain]IKL (not fully specified; reading uncertain) [compound 26 (24 with 6-Cl on the benzothiazol-2-yl)] belongs 0.034 µM; to [5‑Cl‑benzothiazol‑2‑yl side chain]IKL (not fully specified; reading uncertain) [compound 25 (24 with 5-Cl on the benzothiazol-2-yl)], 2.5 µM.

In turn, MIKLFSLKQQ [UBC12 peptide 3] had an inhibition constant Ki of 6 µM. To [Phe(2-Cl)]IKL [compound 13 (11 with Cl at the ortho position of the phenyl ring)] belongs 143 µM; to MIKLFSLKQ [UBC12 peptide 4], 6.5 µM; to MIKLFSLK [UBC12 peptide 5], 9.2 µM. MIKLFS [UBC12 peptide 7] came in with a Ki of 83 µM. To [Phe(3-Cl)]IKL [compound 14 (11 with Cl at the meta position of the phenyl ring)] belongs 45 µM. To YIKL [analog of 11 with p-OH substitution of the phenyl] belongs 386 µM; to MIK [UBC12 tripeptide (10)], more than 1000 µM; to [2Nal]IKL [compound 23 (11 with the phenyl replaced by naphthalen-2-yl)], 3.8 µM.

The term Ki denotes the equilibrium dissociation constant of an inhibitor or competing ligand from its target. Higher therefore signals lower affinity.
